In patent EP2857035B1:

Tests used:
HLA-A2 (human) [1] = test: assembly assay, TAP-deficient cell lysate, W6/32 IP, IEF gel
HLA-A2 (human) [2] = test: assembly assay (HLA stabilisation), T2 cell lysate, IP, IEF gel
HLA-A1 (human) = test: assembly assay, TAP-deficient cell lysate, W6/32 IP, IEF gel
HLA-A3 (human) = test: as above

C1, HIV-1 pol476-484 (peptide)
C50 (HLA-A2 (human) [1]): 0.2 µM | C50 (HLA-A2 (human) [2]): 0.7 µM

C1, Influenza A, PB1 591-599 (peptide)
C50 (HLA-A1 (human)): 0.8 µM

Influenza A, nucleoprotein 265-273 (peptide)
C50 (HLA-A3 (human)): 0.1 µM
